We go through 1 molecule from patent US11266746B2, “Therapeutic antitumor combination of a TLR4 ligand with other treatments” (THE UNITED STATES OF AMERICA, as represented by the …, priority 2016, dated 2022).

In the test the test system is CT26 tumors. The experiment in a line: Treatment of small (about 5 mm) established CT26 tumors in mice. In kind it is in vivo, Balb/c mice. Here is the method: Balb/c mice were inoculated subcutaneously with 100,000 or 200,000 CT26 cells on day 1. […] On days 8, 12, 15 and 19 mice were administered PBS or 1 μg, 10 μg or 50 μg of rHMGN1. Tumor growth was monitored and plotted.
Small CT26 tumors were treated by a combination of one intraperitoneal (i.p.) injection of a suboptimal dose of cyclophosphamide or Cytoxan to reduce regulatory T cells (Treg), a key suppressor cell type in tumors, and four intratumoral (i.t.) administrations of HMGN1 within two weeks. Balb/c mice were subcutaneously inoculated with 100,000 or 200,000 CT26 cells on day 1. When the tumor size reached about 5 mm in diameter (by 4-6 days after tumor inoculation), mice were administered one dose of cyclophosphamide (100 mg/kg, i,p.) and/or HMGN1 protein (10 μg, intratumorally), twice a week for 2 weeks. PBS was administered i.t. or i.p. Tumor growth was monitored and plotted.

Entries after “also recorded” stand apart in the source; their conditions may differ.

B1: High Mobility Group Nucleosome-binding protein 1 (protein, UniProt P05114 1-100, looked up)
Non-histone chromosomal …: MPKRKVSSAEGAAKEEPKRRSARLSAKPPAKVEAKPKKAAAKDKSSDKKVQTKGKRGAKGKQAEVANQETKEDLPAENGETKTEESPASDEAGEKEAKSD
notes: TLR4 ligand
Turning to B1, the tumor growth entry (small (about 5 mm) CT26 tumors, intratumoral rHMGN1 1, 10 or 50 μg on days 8, 12, 15 and 19) is “slowed down tumor growth, but did not completely eradicate tumors; also recorded: inhibited tumor growth in a dose dependent manner”. For the same molecule, the percent survival result (small CT26 tumors, intratumoral rHMGN1) is listed as “improvement in percent survival”.
